Test results taken from patent US20220220224A1 (Hoffmann-La Roche, published 2022).

Key:
[1] = target: T1, recombinant biotinylated monomeric Fc fusion of human Folate Receptor 1 (huFolR1 ECD-AcTev-Fcknob-Avi tag … (human, UniProt P0DOX5 223-449 = IgG part, biotin on the C-terminal Avi tag)); experiment: SPR ProteOn, Fab analyte on immobilized antigen-Fc
T1 construct: also called huFolR1-Fc; human FolR1-Fc
Method: (§1) Immobilization of antigens (ligand): Recombinant antigens were diluted with PBST (10 mM phosphate, 150 mM sodium chloride pH 7.4, 0.005% Tween 20) to 10 μg/ml, then injected at 30 μl/minute in vertical orientation. Injection of analytes: For ‘one-shot kinetics’ measurements, injection direction was changed to horizontal orientation, two-fold dilution series of purified Fab (varying concentration ranges) were injected simultaneously along separate channels 1-5, with association times of 150 or 200 s, and dissociation times of 200 or 600 s, respectively. Buffer (PBST) was injected along the sixth channel to provide an “in-line” blank for referencing. Association rate constants (kₒₙ) and dissociation rate constants (koff) were calculated using a simple one-to-one Langmuir binding model in ProteOn Manager v3.1 software by simultaneously fitting the association and dissociation sensorgrams. The equilibrium dissociation constant (KD) was calculated as the ratio koff/kₒₙ.

[2] = target: T2, recombinant biotinylated monomeric Fc fusion of cynomolgus Folate Receptor 1 (cy FolR1 ECD-AcTev-Fcknob-Avi … (cynomolgus, UniProt P0DOX5 223-449 = IgG part, biotin on the C-terminal Avi tag)); experiment: SPR ProteOn, Fab analyte on immobilized antigen-Fc
T2 construct: also called cyFolR1-Fc; cyno FolR1
Method: as §1

[3] = target: T3, recombinant biotinylated monomeric Fc fusion of human Folate Receptor 2 (hu FolR2 ECD-AcTev-Fcknob-Avi tag … (human, UniProt P0DOX5 223-449 = IgG part, biotin on the C-terminal Avi tag)); experiment: SPR ProteOn, Fab analyte on immobilized antigen-Fc
T3 construct: also called FolR2-Fc
Method: as §1

[4] = target: T4, recombinant biotinylated monomeric Fc fusion of human Folate Receptor 3 (hu FolR3 ECD-AcTev-Fcknob-Avi tag … (human, UniProt P0DOX5 223-449 = IgG part, biotin on the C-terminal Avi tag)); experiment: SPR ProteOn, Fab analyte on immobilized antigen-Fc
T4 construct: also called FolR3-Fc
Method: as §1

[5] = target: T5, recombinant biotinylated monomeric Fc fusion of murine Folate Receptor 1 (mu FolR1 ECD-AcTev-Fcknob-Avitag … (murine, UniProt P0DOX5 223-449 = IgG part, biotin on the C-terminal Avi tag)); experiment: SPR ProteOn, Fab analyte on immobilized antigen-Fc
T5 construct: also called muFolR1-Fc; murine FolR1
Method: as §1

[6] = target: T6, human FolR1 expressed on cells (HeLa, SKOV3, HT-29, transfected HEK cells) (human, UniProt P15328 25-234); experiment: cell-based or functional assay
T6 sequence (P15328 25-234): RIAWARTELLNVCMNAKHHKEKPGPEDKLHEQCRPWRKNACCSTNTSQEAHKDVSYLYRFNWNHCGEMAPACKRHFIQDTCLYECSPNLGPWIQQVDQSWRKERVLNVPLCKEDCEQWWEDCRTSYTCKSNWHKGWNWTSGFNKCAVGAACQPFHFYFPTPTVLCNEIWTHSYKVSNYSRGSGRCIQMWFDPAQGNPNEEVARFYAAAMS

[7] = target: T6, human FolR1 expressed on cells (HeLa, …); experiment: cell-based or functional assay; remark: listed apart in the source
[8] = target: T1, recombinant biotinylated monomeric Fc …; experiment: SPR Biacore, avidity (bivalent)
[9] = target: T1, recombinant biotinylated monomeric Fc …; experiment: SPR Biacore, affinity (monovalent)
[10] = target: T1, recombinant biotinylated monomeric Fc …; experiment: SPR Biacore, affinity (monovalent), antibody captured via anti-Fab
Method: (§2) All SPR experiments were performed on a Biacore T200 at 25° C. with HBS-EP as running buffer (0.01 M HEPES pH 7.4, 0.15 M NaCl, 3 mM EDTA, 0.005% Surfactant P20, Biacore, GE Healthcare). The molecules used for affinity and avidity determination are described in Table 45.
(§3) For affinity measurement, direct coupling of around 12000 resonance units (RU) of the anti-human Fab specific antibody (Fab capture kit, GE Healthcare) was performed on a CM5 chip at pH 5.0 using the standard amine coupling kit (GE Healthcare). Anti-FolR1 T cell bispecifics were captured at 20 nM with a flow rate of 10 μl/min for 40 sec, the reference flow cell was left without capture. […] The dissociation phase was monitored for 300 s and triggered by switching from the sample solution to HBS-EP. The chip surface was regenerated after every cycle using a double injection of 60 sec 10 mM Glycine-HCl pH 2.1. Bulk refractive index differences were corrected for by subtracting the response obtained on the reference flow cell 1. The affinity constants for the interactions were derived from the rate constants by fitting to a 1:1 Langmuir binding using the Bia Evaluation software (GE Healthcare). For low affinity kinetics with association and dissociation phases too fast to be fitted by the 1:1 Langmuir binding model, the steady state analysis model was applied using the Bia Evaluation software (GE Healthcare). The steady state analysis gives the KD of the binding reaction at equilibrium.

[11] = target: T1, recombinant biotinylated monomeric Fc …; experiment: SPR Biacore, avidity (bivalent, apparent KD), antigen-Fc on SA chip
Method: as §2
(§4) Recombinant biotinylated monomeric Fc fusions of human, cynomolgus and murine Folate Receptor 1 (FolR1-Fc) were directly coupled on a SA chip using the standard coupling instruction (Biacore, GE Healthcare). The immobilization level was about 200-300 RU. […] The dissociation was monitored for 240 or 600 seconds. The chip surface was regenerated after every cycle using a double injection of 30 sec 10 mM Glycine-HCl pH 1.5. Bulk refractive index differences were corrected for by subtracting the response obtained on reference flow cell immobilized with recombinant biotinylated murine IL2R Fc fusion (unrelated Fc fused receptor). The binding curves resulting from the bivalent binding of the T cell bispecifics were approximated to a 1:1 Langmuir binding (even though it is a 1:2 binding) and fitted with that model to get an apparent KD representing the avidity of the bivalent binding. The apparent avidity constants for the interactions were derived from the rate constants of the fitting using the Bia Evaluation software (GE Healthcare).

[12] = target: T2, recombinant biotinylated monomeric Fc …; experiment: as above
Method: as §2, §4

[13] = target: T2, recombinant biotinylated monomeric Fc …; experiment: SPR Biacore, affinity (monovalent), antibody captured via anti-Fab, steady state analysis
Method: as §2, §3

[14] = target: T1, recombinant biotinylated monomeric Fc …; experiment: SPR Biacore, single injection on immobilized antigen-Fc
Outline: (§5)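 Biacore T200 at 25 °C in HBS-EP (HEPES pH 7.4). Biotinylated FolR-Fc fusions captured on SA chip at about 300-400 RU. IgGs injected once at 500 nM for 60 s to assess cross-reactivity and specificity.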

[15] = target: T2, recombinant biotinylated monomeric Fc …; experiment: as above
Outline: as §5

[16] = target: T3, recombinant biotinylated monomeric Fc …; experiment: as above
Outline: as §5

[17] = target: T4, recombinant biotinylated monomeric Fc …; experiment: as above
Outline: as §5

B1: 14E4 Fab (Fab, V domains shown)
VH: not shown
VL: EIVLTQSPGTLSLSPGERATLSCRASQSVSSSYLAWYQQKPGQAPRLLIYGASSRATGIPDRFSGSGSGTDSTLTISRLEPEDFAVYYCQQPTSSPITFGQGTKVEIK
notes: bacterial Fab
B1: no binding [1]; no binding [2]; no binding [3]. B1: no binding [4].

B2: 36F2 Fab (Fab, V domains shown)
VH: QVQLVQSGAEVKKPGASVKVSCKASGYTFTSYYMHWVRQAPGQGLEWMGIINPSGGSTSYAQKFQGRVTMTHDTSTSTVYMELSSLRSEDTAVYYCARSFFTGFHLDYWGQGTLVTVSS
VL: EIVLTQSPGTLSLSPGERATLSCRASQSVSSSYLAWYQQKPGQAPRLLIYGASSRATGIPDRFSGSGSGTDFTLTISRLEPEDFAVYYCQQYTNEHYYTFGQGTKVEIK
notes: bacterial Fab
Binder B2 has a Kd [1] of 1810 nM, a Kd [2] of 1640 nM and a Kd [5] of 737 nM. B2: no binding [3]; no binding [4].

B3: 16D5 G49S/K53A TCB (2+1 inverted, common light chain) (bispecific antibody, V domains shown)
VH 1: not shown
VL: QTVVTQEPSLTVSPGGTVTLTCGSSTGAVTTSNYANWVQQKPGQAPRGLIGGTNARAPGTPARFSGSLLGGKAALTLSGVQPEDEAEYYCALWYSNLWVFGGGTKLTVL
VH 2: not shown
In the case of B3, the “EC50 of T-cell killing of Hela, 24 h” value [6] is reported as 0.0044 nM, the “EC50 of T-cell killing of SKov-3, 24 h” value [6] is reported as 1.7 nM and the “EC50 of T-cell killing of HT-29, 48 h” value [7] is reported as 1.79 nM. The “EC50 of T-cell killing of Hela, 48 h” value [7] was 0.0005 nM, the “EC50 of T-cell killing of SKov-3, 48 h” value [7] was 0.95 nM and the “fold lower avidity than 16D5 WT (3 nM)” value [8] was 13 fold. For the same binder, the “fold lower affinity than 16D5 WT (57 nM)” value [9] was 30 fold, the Kd [10] was 1700 nM and the koff [10] was 0.0159 s⁻¹. It also gave a kon [10] of 9170 M⁻¹ s⁻¹, a Kd [11] of 40 nM and a koff [11] of 0.00586 s⁻¹. It also gave a kon [11] of 132000 M⁻¹ s⁻¹, a Kd [12] of 70 nM and a koff [12] of 0.0256 s⁻¹. It also gave a kon [12] of 373000 M⁻¹ s⁻¹ and a Kd [13] of 1900 nM.

B4: 20G6 IgG (antibody, V domains shown)
VH: QVQLVQSGAEVKKPGASVKVSCKASGYTFTSYYMHWVRQAPGQGLEWMGIINPSGGSTSYAQKFQGRVTMTRDTSTSTVYMELSSLRSEDTAVYYCARGEWIRYYHFDYWGQGTLVTVSS
VL: QAVVTQEPSLTVSPGGTVTLTCGSSTGAVTTSNYANWVQEKPGQAFRGLIGGTNKRAPGTPARFSGSLLGGKAALTLSGAQPEDEAEYYCALWYSNLWVFGGGTKLTVL
notes: human IgG1
B4: no binding (tested: 500 nM) [14]; no binding (tested: 500 nM) [15]; no binding (tested: 500 nM) [16]. B4: no binding (tested: 500 nM) [17].

B5: 19H3 IgG (antibody, V domains shown)
VH: QVQLVQSGAEVKKPGASVKVSCKASGYTFTSYYMHWVRQAPGQGLEWMGIINPSGGSTSYAQKFQGRVTMTRDTSTSTVYMELSSLRSEDTAVYYCARTGWSRWGYMDYWGQGTLVTVSS
VL: QAVVTQEPSLTVSPGGTVTLTCGSSTGAVTTSNYANWVQEKPGQAFRGLIGGTNKRAPGTPARFSGSLLGGKAALTLSGAQPEDEAEYYCALWYSNLWVFGGGTKLTVL
notes: human IgG1
B5: no binding (tested: 500 nM) [14]; no binding (tested: 500 nM) [15]; no binding (tested: 500 nM) [16]. B5: no binding (tested: 500 nM) [17].

B6: 9D11 Fab (Fab, V domains shown)
VH: QVQLVQSGAEVKKPGASVKVSCKASGYTFTSYYMHWVRQAPGQGLEWMGIINPSGGPTSYAQKFQGRVTMTRDTSTSTVYMELSSLRSEDTAVYYCARGDFAWLDYWGQGTLVTVSS
VL: not shown
notes: bacterial Fab
In the case of B6, the Kd [1] is reported as 8.64 nM, the Kd [2] is reported as 5.29 nM and the binding result [5] is reported as “no binding”. B6: no binding [3]; no binding [4].
